Assay results reported in paper PMC2666446 (Journal of molecular biology, 2008).

Legend:
MutS [1] = biological target: T1, MutS (Escherichia coli, UniProt P23909 1-853); experiment: FRET equilibrium titration
T1 sequence: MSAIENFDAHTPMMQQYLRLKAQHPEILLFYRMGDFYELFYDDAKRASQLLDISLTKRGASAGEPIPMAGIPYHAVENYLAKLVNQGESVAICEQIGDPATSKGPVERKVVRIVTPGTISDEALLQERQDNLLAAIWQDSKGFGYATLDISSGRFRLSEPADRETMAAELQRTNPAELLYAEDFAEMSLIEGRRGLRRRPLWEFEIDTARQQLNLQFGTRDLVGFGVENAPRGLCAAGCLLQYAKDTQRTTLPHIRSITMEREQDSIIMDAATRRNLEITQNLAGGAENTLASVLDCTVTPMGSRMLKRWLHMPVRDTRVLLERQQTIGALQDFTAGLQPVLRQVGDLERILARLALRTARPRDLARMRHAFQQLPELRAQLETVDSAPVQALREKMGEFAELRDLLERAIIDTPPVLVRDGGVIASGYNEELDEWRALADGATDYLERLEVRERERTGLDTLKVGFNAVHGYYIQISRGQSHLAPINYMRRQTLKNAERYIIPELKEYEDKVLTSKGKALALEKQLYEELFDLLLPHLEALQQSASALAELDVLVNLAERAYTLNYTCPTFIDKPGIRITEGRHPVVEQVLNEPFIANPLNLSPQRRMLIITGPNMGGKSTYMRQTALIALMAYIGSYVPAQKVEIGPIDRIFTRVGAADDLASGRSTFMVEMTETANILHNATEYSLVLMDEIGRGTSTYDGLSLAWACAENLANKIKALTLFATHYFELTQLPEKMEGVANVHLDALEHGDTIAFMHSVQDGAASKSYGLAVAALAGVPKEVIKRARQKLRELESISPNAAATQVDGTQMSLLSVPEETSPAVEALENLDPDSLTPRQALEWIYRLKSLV

MutS [2] = biological target: T1, MutS; experiment: stopped-flow FRET kinetics
MutS [3] = biological target: T1, MutS; experiment: stopped-flow FRET kinetics; remark: listed apart in the source
MutS [4] = biological target: T1, MutS; experiment: FRET equilibrium titration; remark: listed apart in the source
MutS [5] = biological target: T1, MutS; experiment: FRET equilibrium titration; remark: listed apart in the source
MutS [6] = biological target: T1, MutS; experiment: FRET equilibrium titration; remark: listed apart in the source
mutS-A842E = biological target: T2, mutS-A842E (Escherichia coli, UniProt P23909 1-853, A842E); experiment: EMSA
T2 sequence: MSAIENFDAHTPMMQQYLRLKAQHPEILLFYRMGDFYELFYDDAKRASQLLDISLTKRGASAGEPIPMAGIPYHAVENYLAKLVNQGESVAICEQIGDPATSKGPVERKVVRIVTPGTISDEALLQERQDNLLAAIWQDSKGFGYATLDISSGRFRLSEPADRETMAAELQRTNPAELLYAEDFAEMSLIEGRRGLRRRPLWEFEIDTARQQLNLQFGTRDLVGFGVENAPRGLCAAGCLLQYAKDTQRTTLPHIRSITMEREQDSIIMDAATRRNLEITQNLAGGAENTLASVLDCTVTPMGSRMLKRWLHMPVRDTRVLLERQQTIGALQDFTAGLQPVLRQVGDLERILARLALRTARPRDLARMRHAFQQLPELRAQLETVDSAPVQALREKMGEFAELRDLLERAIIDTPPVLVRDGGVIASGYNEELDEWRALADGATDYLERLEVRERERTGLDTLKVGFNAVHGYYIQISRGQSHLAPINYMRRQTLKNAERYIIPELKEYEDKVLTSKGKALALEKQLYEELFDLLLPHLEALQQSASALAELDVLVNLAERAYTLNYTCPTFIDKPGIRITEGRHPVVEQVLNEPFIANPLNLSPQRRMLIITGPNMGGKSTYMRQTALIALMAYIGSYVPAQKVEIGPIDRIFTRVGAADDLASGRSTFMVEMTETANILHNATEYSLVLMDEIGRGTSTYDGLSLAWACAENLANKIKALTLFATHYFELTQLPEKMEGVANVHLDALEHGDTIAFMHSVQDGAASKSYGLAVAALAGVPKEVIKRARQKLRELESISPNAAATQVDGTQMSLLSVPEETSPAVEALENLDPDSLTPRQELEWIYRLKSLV

MutS [7] = biological target: T1, MutS; experiment: FRET equilibrium titration; remark: listed apart in the source
MutS [8] = biological target: T1, MutS; experiment: stopped-flow FRET kinetics; remark: listed apart in the source
MutS [9] = biological target: T1, MutS; experiment: stopped-flow FRET kinetics; remark: listed apart in the source
MutS [10] = biological target: T1, MutS; experiment: stopped-flow FRET kinetics; remark: listed apart in the source
MutS [11] = biological target: T1, MutS; experiment: stopped-flow FRET kinetics; remark: listed apart in the source
MutS [12] = biological target: T1, MutS; experiment: stopped-flow FRET kinetics; remark: listed apart in the source

B1: 30-GT (dsDNA)
DNA 1: AACTGCCAGGCACCAGTGTCAGCGTCGTAT
DNA 2: ATACGACGCTGACACTGGTGCTTGGCAGTT
Kd (MutS [1]): 74 nM | Kd (MutS [2]): 91 nM | Kd (MutS [3]): 26 nM | Kd (MutS [4]): ~176 nM | Kd (MutS [5]): 69 nM

B2: 30-1ΔT (dsDNA)
DNA 1: AACTGCCAGGCACCAGTGTCAGCGTCGTAT
DNA 2: ATACGACGCTGACACTGGTGCCTTGGCAGTT
Kd (MutS [1]): 62 nM | Kd (MutS [6]): 56 nM | binding result (mutS-A842E): binds | Kd (MutS [7]): 123 nM | Kd (MutS [8]): 137 nM | Kd (MutS [2]): 91 nM | Kd (MutS [9]): 50 nM | Kd (MutS [10]): 27 nM | Kd (MutS [11]): 321 nM | Kd (MutS [12]): 39 nM
